This is an account of results in patent US20260207757A1.

For test [1], the target named is type 1 IGF receptor (IGF-1R) (human) (UniProt P08069). Briefly: displacement of 125I-IGF-1 from MCF7 cells, 4 C overnight.
The target is the same in test [2]. Put plainly: competition binding to IGF receptors against radioactive wild type IGF.

type 1 IGF receptor (IGF-1R) (human), sequence (P08069 31-1367): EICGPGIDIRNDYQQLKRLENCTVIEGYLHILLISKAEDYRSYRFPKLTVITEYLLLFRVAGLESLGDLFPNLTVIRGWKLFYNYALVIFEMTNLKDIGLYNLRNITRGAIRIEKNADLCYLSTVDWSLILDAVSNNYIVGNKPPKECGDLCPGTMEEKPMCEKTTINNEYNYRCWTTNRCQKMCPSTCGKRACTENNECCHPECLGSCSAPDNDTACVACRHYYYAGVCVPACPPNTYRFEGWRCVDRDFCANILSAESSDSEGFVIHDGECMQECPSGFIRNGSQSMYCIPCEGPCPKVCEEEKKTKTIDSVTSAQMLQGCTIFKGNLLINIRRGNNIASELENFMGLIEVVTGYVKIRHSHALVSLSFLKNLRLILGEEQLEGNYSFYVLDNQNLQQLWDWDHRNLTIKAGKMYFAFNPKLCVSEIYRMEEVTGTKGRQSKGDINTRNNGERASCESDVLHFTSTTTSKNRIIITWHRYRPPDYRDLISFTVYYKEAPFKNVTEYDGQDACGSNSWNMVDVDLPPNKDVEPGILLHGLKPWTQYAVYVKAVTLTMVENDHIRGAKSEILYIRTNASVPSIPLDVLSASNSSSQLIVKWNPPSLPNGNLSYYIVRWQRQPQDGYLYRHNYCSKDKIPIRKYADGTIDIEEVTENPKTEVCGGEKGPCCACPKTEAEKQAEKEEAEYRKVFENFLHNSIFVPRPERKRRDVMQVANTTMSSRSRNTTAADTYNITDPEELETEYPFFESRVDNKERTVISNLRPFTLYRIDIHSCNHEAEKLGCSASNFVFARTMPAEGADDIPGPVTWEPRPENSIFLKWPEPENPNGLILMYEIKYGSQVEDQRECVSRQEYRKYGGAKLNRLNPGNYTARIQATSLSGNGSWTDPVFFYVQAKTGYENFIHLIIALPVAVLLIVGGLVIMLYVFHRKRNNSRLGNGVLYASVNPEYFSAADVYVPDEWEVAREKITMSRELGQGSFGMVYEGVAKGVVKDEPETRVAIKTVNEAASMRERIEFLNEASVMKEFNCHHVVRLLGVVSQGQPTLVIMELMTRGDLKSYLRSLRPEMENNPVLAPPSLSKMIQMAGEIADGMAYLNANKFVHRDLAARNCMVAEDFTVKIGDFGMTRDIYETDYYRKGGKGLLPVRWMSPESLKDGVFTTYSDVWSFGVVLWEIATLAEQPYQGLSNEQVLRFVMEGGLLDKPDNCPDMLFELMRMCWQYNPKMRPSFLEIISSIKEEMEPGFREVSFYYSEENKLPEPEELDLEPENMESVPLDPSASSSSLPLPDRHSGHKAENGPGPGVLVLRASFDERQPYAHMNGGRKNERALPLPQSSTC

As for long-R3-IGF (ligand), the Kd in test [1] is 3 nM; in test [2] it was 1 nM.
